Ends that are not written are not given here.
What was measured:
[1] = tested on: rat gastro-intestinal tract (closed loop); test: Transport of preselected phage libraries in rat closed loop, detected by oligonucleotide hybridization/autoradiography; details: in words; for Presence in the intestinal samples fractions / Transport from the GIT closed loop model into the portal circulation: D2H pool
Description: Four preselected phage libraries, GI-D2H, GI-hSI, GI-HPT1 and GI-hPEPT1, were constructed by pooling phage previously selected by screening random phage display libraries D38 and DC43 using the HPT1, HPEPT1, D2H and hSI receptor or binding sites located in the GIT.
In particular, phages selected in vitro to each receptor or binding site located in the GIT were amplified in E. coli, PEG-precipitated, resuspended in TBS and the titer of each phage sample was determined by plaquing in E. coli as described above. […] Using the in situ loop model described above, 0.5 ml of preselected phage library solution was injected into the tied-off portion of the duodenum/jejunum. Blood was collected into heparinized tubes from the portal vein at 0, 15, 30, 45 and 60 minutes. A blood sample was taken from the systemic circulation at the end of the experiment. Similarly, the portion of the duodenum/jejunum used for phage injection was taken at the end of the experiment.
Thirty microliters of the collected portal blood (neat and 10^−2, 10^−1, 10^−6 dilutions) was added to 30 μl E. coli K91Kan cells (overnight culture) and incubated at 37° C. for 10 min. Subsequently, 3 ml of top agarose was added and the samples were plated for plaques. One hundred microliters of the collected portal blood was added to 100 μl of E. coli K91Kan. Five milliliters of LB medium was then added and the samples were incubated at 37° C. overnight in a rotating microbial incubator. The E. coli was removed by centrifugation and the amplified phage supernatant samples were either titered directly or were PEG-precipitated, resuspended in TBS and titered. Following titration of the amplified phage, samples containing phage from each set of animals were combined, adjusting the titer of each sample to the same titer, and were plated for plaques on LB agar lates (22 cm^2 square plates). Either 12,000 or 24,000 phage were lated for plaques.
Thirty microliters of the collected systemic blood (neat and 10^−2, 10^−1, 10^−6 dilutions) was added to E. coli K91Kan cells, incubated at 37° C. for 10 min. Three ml of top agarose was then added and the samples were plated for plaques. One hundred microliters of the collected systemic blood was added to 100 μl of E. coli K91Kan, incubated at 37° C. for 10 min. Five milliliters of LB medium was then added and the samples were incubated at 37° C. overnight in a rotating microbial incubator. The E. coli was removed by centrifugation and the amplified phage supernatant samples were either titered directly or were PEG-precipitated, resuspended in TBS and titered. Following titration of the amplified phage, samples containing phage from each set of animals were combined, adjusting the titer of each sample to the same titer, and were plated for plaques on LB agar plates (22 cm^2 square plates). Either 12,000 or 24,000 phage were plated for plaques.
The intestinal tissue portion used in each closed loop was excised. […] Alternatively, the tissue (in PBS supplemented with protease inhibitors) was homogenized in an Ultra Thorex homogenizer, washed 3 times in PBS containing protease inhibitors and resuspended in PBS containing protease inhibitors (Int-G samples). In each case, serial dilutions (neat and 10^−2, 10^−4, 10^−6 dilutions) of the tissue homogenate was titered in E. coli.
The phage amplified from the portal blood, systemic blood and intestinal tissue was plated for plaques. […] The filters were air-dried, and the DNA was cross-linked to the filter (UV crosslinking: 2 min, high setting). The filters were incubated in pre-hybridization buffer (6×SSC, 5× Denhardt's solution, 0.1% SDS, […] yeast tRNA) at 40° C.–45° C. for at least 60 min.
Synthetic oligonucleotides, (22-mers), complimentary to regions coding for the receptor or binding sites used to create the preselected phage library, were synthesized (see Table 14 below).

BSA = BSA (Bos taurus, UniProt P02769); test: Receptor ELISA of phage on BSA (background control protein); format: binding
Sequence of BSA (P02769 25-607): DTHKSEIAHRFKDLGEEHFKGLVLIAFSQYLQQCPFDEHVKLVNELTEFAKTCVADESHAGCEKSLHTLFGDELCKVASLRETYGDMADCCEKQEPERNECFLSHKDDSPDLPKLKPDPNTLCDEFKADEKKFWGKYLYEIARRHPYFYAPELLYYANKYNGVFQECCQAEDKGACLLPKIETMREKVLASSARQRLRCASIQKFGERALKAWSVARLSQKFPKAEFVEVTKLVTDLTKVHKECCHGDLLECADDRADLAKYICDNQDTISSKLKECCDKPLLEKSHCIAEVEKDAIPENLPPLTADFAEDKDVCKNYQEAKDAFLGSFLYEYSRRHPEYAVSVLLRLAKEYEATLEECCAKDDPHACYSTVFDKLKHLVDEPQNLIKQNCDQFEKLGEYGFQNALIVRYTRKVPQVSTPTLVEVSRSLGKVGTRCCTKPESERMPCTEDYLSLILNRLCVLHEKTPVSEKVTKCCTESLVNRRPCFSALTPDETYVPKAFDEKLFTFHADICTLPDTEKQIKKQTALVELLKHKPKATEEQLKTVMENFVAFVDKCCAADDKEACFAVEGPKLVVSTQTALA
Description: (§1) 96 well plates were coated overnight with GIT receptor, BSA and, optionally, IDE (insulin degrading enzyme, an irrelevant His-fusion protein)or hTF. The plates were blocked for one hour with 0.5% BSA-PBS. After clarification, the amplified phage were diluted 1:100 in 1% BSA plus 0.05% Tween 20 in PBS and added to the plates. Following incubation of the plates on a rotator for 1 to 2 hours, the plates were washed 5 times with 1% BSA plus 0.05% Tween 20 in PBS. Dilute anti-M13-HRP conjugate (anti-M13 antibody linked to horse radish peroxidase (HRP)) was added to all the wells and the plate was incubated for one hour on a rotator. After the plates were washed 5 times, as described above, TMB substrate was added to the wells. The plates were read at 650 nm absorbance.

[2] = target: bovine serum albumin (bovine) (UniProt P02769); test: phage ELISA on coated BSA
Sequence of bovine serum albumin (bovine) (P02769 25-607 limits assumed): as the sequence (P02769 25-607) above

[3] = target: T1, recombinant hPEPT1 receptor domain (human PEPT1, amino acid residues 391-571), His-tag fusion protein (human, UniProt P46059 391-571); test: phage ELISA on coated hPEPT1
T1 construct: purified under denaturing conditions; coated on plates
T1 sequence: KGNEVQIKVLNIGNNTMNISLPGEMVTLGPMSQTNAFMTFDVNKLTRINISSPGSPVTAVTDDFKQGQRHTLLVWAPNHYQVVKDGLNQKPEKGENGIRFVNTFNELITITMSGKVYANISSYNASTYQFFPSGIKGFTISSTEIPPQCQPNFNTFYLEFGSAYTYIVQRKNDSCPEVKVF
Description: as §1, with “6.6. Receptor ELISA Procedure 96” for “96”, “Dilute anti-M13-HRP conjugate (anti-M13 antibody linked to horse radish peroxidase (HRP)) was added to all the wells and the plate was incubated for one hour on a rotator.” left out

[4] = target: T1, recombinant hPEPT1 receptor domain …; test: phage ELISA, OD on hPEPT1 over OD on BSA
Description: as §1, with “6.6. Receptor ELISA Procedure 96” for “96”, “Dilute anti-M13-HRP conjugate (anti-M13 antibody linked to horse radish peroxidase (HRP)) was added to all the wells and the plate was incubated for one hour on a rotator.” left out

[5] = target: T2, recombinant hPEPT1 receptor domain (human PEPT1, amino acid residues 391-571), His-tag fusion protein (human) (UniProt P46059); test: phage ELISA on coated hPEPT1
T2 sequence: T1 sequence

[6] = target: T2, recombinant hPEPT1 receptor domain (human PEPT1, amino acid residues 391-571), His-tag fusion protein (human); test: phage ELISA, OD on hPEPT1 over OD on BSA
[7] = Table 3, two pans on D2H, third on Caco-2 snapwells
[8] = Table 1, phage panned on hSI, 650 nm

STPPSREAYSRPYSVDSDSDTNAKHSSHNRRLRTRSRPN (not fully specified) [PAX2]
Presence in the portal or systemic circulation ([1]; HPT1 pool, PAX2 used at 4x concentration): found in the portal and systemic circulation | Binding to / presence in the intestine samples ([1]; hPEPT1 pool): not found | Presence in the portal circulation ([1]; hPEPT1 pool): found

SQGSKQCMQYRTGRLTVGSEYGCGMNPARHATPAYPARLLPRYR [DCX11]
BSA (BSA; [7]): 0.071 OD | Presence in the intestinal samples fractions [1]: found | Transport from the GIT closed loop model into the portal circulation [1]: preferably transported

RVGQCTDSDVRRPWARSCAHQGCGAGTRNSHGCITRPLRQASAH [SNi10]
BSA (BSA; [8]): 0.051 OD

SPCGGSWGRFMQGGLFGGRTDGCGAHRNRTSASLEPPSSDY [SNi34]
BSA (BSA; [8]): 0.115 OD

RYKHDIGCDAGVDKKSSSVRGGCGAHSSPPRAGRGPRGTMVSRL [DCX8]
BSA (BSA; [7]): 0.063 OD | Presence in the intestinal samples fractions [1]: to a much lesser extent | Transport from the GIT closed loop model into the portal circulation [1]: transported

B1: phage PAX46 (peptide)
peptide: SRCTDNEQCPDTGTRSRSVSNARYFSSRLLKTHAPHRP
modifications: cysteine pairing not given here; also: displayed as N-terminal pIII fusion on M13 phage
notes: M13 phage displaying this insert as N-terminal pIII fusion; whole phage in the ELISA; not shown: M13 phage particle / pIII display carrier (and vector flanks)
OD [2]: 0.077 OD 650 nm | OD [3]: 0.429 OD 650 nm | PEPT1/BSA [4]: 6 ratio

B2: phage 5PAX3 (peptide, not shown: large carriers)
peptide: RPKNVADAYSSQDGAAAEETSHASNAARKSPKHKPLRRP
modifications: also: displayed as N-terminal pIII fusion on M13 phage
OD [2]: 0.04 OD 650 nm | OD [5]: 0.173 OD 650 nm | PEPT1/BSA [6]: 4

B3: phage 5PAX5 (peptide, not shown: large carriers)
peptide: RGSTGTAGGERSGVLNLHTRDNASGSGFKPWYPSNRGHK
modifications: also: displayed as N-terminal pIII fusion on M13 phage
OD [2]: 0.036 OD 650 nm | OD [5]: 0.15 OD 650 nm | PEPT1/BSA [6]: 4

B4: phage PAX43 (peptide, not shown: large carriers)
peptide: RWCEKHKFTAARCSAGAGFERDASRPPQPAHRDNTNRNA
modifications: cysteine pairing not given here; also: displayed as N-terminal pIII fusion on M13 phage
OD [2]: 0.069 OD 650 nm | OD [5]: 0.345 OD 650 nm | PEPT1/BSA [6]: 5

B5: phage P90 (peptide)
peptide: SSADAEKCAGSLLWWGRQNNSGCGSPTKKHLKHRNRSQTSSSSH
modifications: cysteine pairing not given here; also: displayed as N-terminal pIII fusion on M13 phage
notes: M13 phage displaying this insert as N-terminal pIII fusion; whole phage in the ELISA; not shown: M13 pIII coat protein and phage particle (display carrier)
OD [2]: 0.107 OD 650 nm | OD [3]: 1.12 OD 650 nm | PEPT1/BSA [4]: 9 ratio

B6: phage PAX45 (peptide)
peptide: SFQVYPDHGLERHALDGTGPLYAMPGRWIRARPQNRDRQ
modifications: also: displayed as N-terminal pIII fusion on M13 phage
notes: as for B1
OD [2]: 0.081 OD 650 nm | OD [3]: 0.419 OD 650 nm | PEPT1/BSA [4]: 5 ratio

B7: phage PAX38 (peptide, not shown: large carriers)
peptide: SSKVSSPRDPTVPRKGGNVDYGCGHRSSARMPTSALSSITKCYT
modifications: cysteine pairing not given here; also: displayed as N-terminal pIII fusion on M13 phage
OD [2]: 0.064 OD 650 nm | OD [5]: 0.292 OD 650 nm | PEPT1/BSA [6]: 5

B8: phage PAX9 (peptide, not shown: large carriers)
peptide: RWPSVGYKGNGSDTIDVHSNDASTKRSLIYNHRRPLFP
OD [2]: 0.079 OD 650 nm | OD [5]: 0.312 OD 650 nm | PEPT1/BSA [6]: 4

B9: phage PAX35 (peptide)
peptide: RSITDGGINEVDLSSVSNVLENANSHRAYRKHRPTLKRP
modifications: also: displayed as N-terminal pIII fusion on M13 phage
notes: as for B1
OD [2]: 0.065 OD 650 nm | OD [3]: 0.474 OD 650 nm | PEPT1/BSA [4]: 7 ratio

B10: phage P31 (peptide)
peptide: SARDSGPAEDGSRAVRLNGVENANTRKSSRSNPRGRRHP
modifications: also: displayed as N-terminal pIII fusion on M13 phage
notes: as for B5
OD [2]: 0.075 OD 650 nm | OD [3]: 0.807 OD 650 nm | PEPT1/BSA [4]: 11 ratio

B11: phage 5PAX7 (peptide, not shown: large carriers)
peptide: RWGWERSPSDYDSDMDLGARRYATRTHRAPPRVLKAPLP
modifications: also: displayed as N-terminal pIII fusion on M13 phage
OD [2]: 0.037 OD 650 nm | OD [5]: 0.171 OD 650 nm | PEPT1/BSA [6]: 5

B12: phage PAX15 (peptide, not shown: large carriers)
peptide: SYCRVKGGGEGGHTDSNLARSGCGKVARTSRLQHINPRATPPSR
OD [2]: 0.079 OD 650 nm | OD [5]: 0.301 OD 650 nm | PEPT1/BSA [6]: 4

B13: phage PAX17 (peptide)
peptide: SQVDSFRNSFRWYEPSRALCHGCGKRDTSTTRIHNSPSDSYPTR
modifications: cysteine pairing not given here; also: displayed as N-terminal pIII fusion on M13 phage
notes: as for B1
OD [2]: 0.095 OD 650 nm | OD [3]: 0.514 OD 650 nm | PEPT1/BSA [4]: 5 ratio

B14: phage PAX18 (peptide)
peptide: SFLRFQSPRFEDYSRTISRLRNATNPSNVSDAHNNRALA
modifications: also: displayed as N-terminal pIII fusion on M13 phage
notes: as for B1
OD [2]: 0.087 OD 650 nm | OD [3]: 0.416 OD 650 nm | PEPT1/BSA [4]: 5 ratio

B15: phage PAX40 (peptide)
peptide: RASTQGGRGVAPEFGASVLGRGCGSATYYTNSTSCKDAMGHNYS
modifications: cysteine pairing not given here; also: displayed as N-terminal pIII fusion on M13 phage
notes: as for B1
OD [2]: 0.076 OD 650 nm | OD [3]: 0.461 OD 650 nm | PEPT1/BSA [4]: 6 ratio

Reference: patent US7053177B1, “Random peptides that bind to gastro-intestinal tract (GIT) transport receptors and related methods” (Cytogen Corporation, priority 1997, dated 2006)
